Data set [1] deals with T1, human PrimPol (wild-type, full-length) (Homo sapiens, UniProt Q96LW4).
T1 construct: full length (560 residues), E. coli BL21(pLysS), Ni-NTA, heparin and gel filtration
T1 sequence (Q96LW4 1-560): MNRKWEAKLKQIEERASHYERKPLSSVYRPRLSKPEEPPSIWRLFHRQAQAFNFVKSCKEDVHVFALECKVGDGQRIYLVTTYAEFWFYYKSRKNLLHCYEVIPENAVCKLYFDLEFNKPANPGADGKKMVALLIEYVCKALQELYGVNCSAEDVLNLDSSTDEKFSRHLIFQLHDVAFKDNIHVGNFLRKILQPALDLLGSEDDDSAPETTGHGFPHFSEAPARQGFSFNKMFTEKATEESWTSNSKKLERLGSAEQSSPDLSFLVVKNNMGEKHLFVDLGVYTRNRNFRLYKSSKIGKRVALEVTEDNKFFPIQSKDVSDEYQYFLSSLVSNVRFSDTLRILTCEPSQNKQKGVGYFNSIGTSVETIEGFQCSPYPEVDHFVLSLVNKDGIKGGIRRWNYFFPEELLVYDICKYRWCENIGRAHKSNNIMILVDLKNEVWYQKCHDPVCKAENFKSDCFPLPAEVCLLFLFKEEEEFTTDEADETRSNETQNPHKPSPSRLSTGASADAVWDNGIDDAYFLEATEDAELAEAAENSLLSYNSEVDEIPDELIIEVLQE
Description: gel-based single nucleotide primer extension. The data set is classed as biochemical. The settings on record: 200 uM dNTP.

Data set [2] addresses T2, PrimPol1–354 (Homo sapiens, UniProt Q96LW4).
T2 construct: gene PRIMPOL; AEP polymerase domain, residues 1-354, lacks zinc finger; E. coli, Ni-NTA
T2 sequence (Q96LW4 1-354): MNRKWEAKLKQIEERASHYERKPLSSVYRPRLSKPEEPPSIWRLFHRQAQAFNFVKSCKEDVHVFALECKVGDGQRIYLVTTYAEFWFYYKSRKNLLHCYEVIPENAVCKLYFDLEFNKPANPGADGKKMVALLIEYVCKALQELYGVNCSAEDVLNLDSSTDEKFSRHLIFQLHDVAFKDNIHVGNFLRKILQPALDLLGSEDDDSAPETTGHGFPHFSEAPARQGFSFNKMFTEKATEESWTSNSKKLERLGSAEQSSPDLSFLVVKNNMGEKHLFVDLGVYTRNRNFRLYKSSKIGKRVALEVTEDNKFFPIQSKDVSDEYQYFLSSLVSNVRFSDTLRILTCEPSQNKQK
Description: gel-based single nucleotide primer extension. The class given is biochemical. The settings on record: opposite templating cytosines; 200 uM dNTP, 10 mM MgCl2, pH 7.0.

Data set [3] deals with T3, PrimPol1-354 (AEP polymerase domain) (Homo sapiens, UniProt Q96LW4 1-354).
T3 sequence: T2 sequence (Q96LW4 1-354)
Description: EMSA; 10 mM Mg2+; 40 nM DNA; shift evident at ~0.5 uM protein, complete at 5 uM; 10 mM Bis-Tris-Propane-HCl pH 7.0, 10 mM MgCl2, 1 mM DTT, 40 nM DNA, 25°C, 60 min; 5% polyacrylamide gel in 0.5x TBE. The settings on record: protein: recombinant, tags: His (Ni-NTA purified).

For data set [4], the target named is T4, PrimPol372-560 (zinc finger domain) (Homo sapiens, UniProt Q96LW4 372-560).
T4 sequence: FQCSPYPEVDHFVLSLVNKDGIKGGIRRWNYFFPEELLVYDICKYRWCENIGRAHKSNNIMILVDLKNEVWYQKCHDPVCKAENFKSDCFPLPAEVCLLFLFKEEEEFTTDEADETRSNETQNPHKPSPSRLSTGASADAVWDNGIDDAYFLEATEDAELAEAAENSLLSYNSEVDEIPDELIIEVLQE
Description: EMSA; 10 mM Mg2+; 40 nM DNA; protein 0.05-20 uM; 10 mM Bis-Tris-Propane-HCl pH 7.0, 10 mM MgCl2, 1 mM DTT, 40 nM DNA, 25°C, 60 min; 5% polyacrylamide gel in 0.5x TBE. The settings on record: protein: recombinant; tags: His (Ni-NTA purified); label: 5'-Hex.

Data set [5] concerns the target T4, PrimPol372-560 (zinc finger domain). Description: EMSA; 10 mM Mg2+; 40 nM DNA; no shift, protein 0.05-20 uM; 10 mM Bis-Tris-Propane-HCl pH 7.0, 10 mM MgCl2, 1 mM DTT, 40 nM DNA, 25°C, 60 min; 5% polyacrylamide gel in 0.5x TBE. The settings on record: protein: recombinant; tags: His (Ni-NTA purified); label: 5'-Hex on strand 1; blunt.

As for `Nc1ncnc2c1ncn2[C@H]1C[C@H](O)[C@@H](COP(=O)(O)OP(=O)(O)OP(=O)(O)O)O1` [dATP], the “gel-based single nucleotide primer extension” value in data set [1] (template-independent extension, 10 mM MgCl2, 1 mM MnCl2, pH 7.0, 37 °C) was “promiscuous DNA synthesis was most efficient when enzyme was utilising dATP or dTTP”.
Regarding `Nc1nc2c(ncn2[C@H]2C[C@H](O)[C@@H](COP(=O)(O)OP(=O)(O)OP(=O)(O)O)O2)c(=O)[nH]1` [dGTP], the “gel-based single nucleotide primer extension” value in data set [2] is “All four of these PrimPol constructs inserted two guanine nucleotides opposite two cytosines”; in data set [1] (opposite templating cytosines, 10 mM MgCl2, pH 7.0), “all incorporated two correct incoming guanine nucleotides opposite the templating cytosines”.
In the case of TGTCGTCTGTTCGGTCGTTCGGTCTTCAAGGCTGTTGTGCGCCCTGCGCG (ssDNA) [HP-50 ssDNA (sequence 7)], the binding result in data set [3] (label: 5'-Hex) and in data set [4] was “binds” each time.

B1: HP-50/ND-50 dsDNA (sequence 6 annealed to 7) (dsDNA)
DNA 1: TGTCGTCTGTTCGGTCGTTCGGTCTTCAAGGCTGTTGTGCGCCCTGCGCG
DNA 2: CGCGCAGGGCGCACAACAGCCTTGAAGACCGAACGACCGAACAGACGACA
B1: the binding result in data set [3] (label: 5'-Hex on strand 1, blunt) is “binds”; in data set [5], “no binding”.

The record behind these values is PMC4027207, “Molecular dissection of the domain architecture and catalytic activities of human PrimPol” (Nucleic Acids Research, 2014).
